Data published in patent US20050118674A1, “Engineering of Controlled Deamidation Rates in Peptides, Proteins, and Similar Structures” (priority 2003, published 2005).
Where no end group is shown, it is not given here.

Assay: First-order nonenzymatic deamidation of pentapeptides in Tris buffer
Type: physicochemical
Settings: pH 7.4, 37.0° C., 0.15 M Tris HCl; Asn pentapeptides
Protocol: One of the discoveries made was that the sequence dependence of deamidation is much richer and covers a wider range than previously thought. In 37° C., pH 7.4, 0.15 M Tris buffer, the combination of XxxAsnYyy and XxxGlnYyy sequences where Xxx and Yyy are any of the naturally occuring amino acids covers a range from less than 1 day to over 15,000 days with the entire range in between available.
It is based on pentapeptide rates measure in 37° C., pH 7.4, 0.15 M Tris buffer. The applicability of a pentapeptide model to sequence dependence was verified in a separate set of experiments. All values listed in this table are experimental except for the four values in boxes, which were estimated from the rest of the data.
It is also based on pentapeptide rates measure in 37° C., pH 7.4, 0.15 M Tris buffer. In this case, the 52 values shown in bold were measured, and the rest of the values were derived from surface fitting.
Deamidation rates are affected by a wide variety of parameters, including, pH, Temperature, Ionic Strength, and Buffer Ions. These rates are measured under pH and Temperature conditions that are applicable to biological systems. The buffer type and concentration were chosen to minimize ion affects to the extent possible given the experimental limitations. Modification of these conditions will change the rates in Tables 1 and 2. As long as the conditions are not taken to extremes (i.e. high temperature, or strongly acidic or basic conditions) the qualitative sequence dependence should remain the same and the rates reported here can be used with necessary adjustments.
For “GlyTyrAsnGluGly (GYNEG; printed: GlyTyrAsnGluGly)”, the “First-Order Deamidation Halftimes of GlyXxxAsnYyyGly” value was 41.0 days. In the case of “GlyLysAsnSerGly (GKNSG; printed: GlyLysAsnSerGly)”, the “First-Order Deamidation Halftimes of GlyXxxAsnYyyGly” value is reported as 15.6 days. For “GlyThrAsnGluGly (GTNEG; printed: GlyThrAsnGluGly)”, the “First-Order Deamidation Halftimes of GlyXxxAsnYyyGly” value was 60.8 days. In the case of “GlyTrpAsnValGly (GWNVG; printed: GlyTrpAsnValGly)”, the “First-Order Deamidation Halftimes of GlyXxxAsnYyyGly” value is reported as 226 days. With “GlyGluAsnPheGly (GENFG; printed: GlyGluAsnPheGly)” the “First-Order Deamidation Halftimes of GlyXxxAsnYyyGly” value was 70.2 days. In the case of “GlyValAsnHisGly (GVNHG; printed: GlyValAsnHisGly)”, the “First-Order Deamidation Halftimes of GlyXxxAsnYyyGly” value is reported as 10.2 days. For “GlyAmCysAsnLeuGly (CNLG; not fully specified (N-terminus); printed as GlyAmCysAsnLeuGly)”, the “First-Order Deamidation Halftimes of GlyXxxAsnYyyGly” value was 100 days. With “GlyTrpAsnLeuGly (GWNLG; printed: GlyTrpAsnLeuGly)” the “First-Order Deamidation Halftimes of GlyXxxAsnYyyGly” value was 133 days. In the case of “GlyCysAsnCysGly (GCNCG; printed: GlyCysAsnCysGly)”, the “First-Order Deamidation Halftimes of GlyXxxAsnYyyGly” value is reported as 46.0 days. In the case of “GlyIleAsnCysGly (GINCG; printed: GlyIleAsnCysGly)”, the “First-Order Deamidation Halftimes of GlyXxxAsnYyyGly” value is reported as 52.7 days. For “GlyValAsnAlaGly (GVNAG; printed: GlyValAsnAlaGly)”, the “First-Order Deamidation Halftimes of GlyXxxAsnYyyGly” value was 27.5 days. With “GlyIleAsnGlyGly (GINGG; printed: GlyIleAsnGlyGly)” the “First-Order Deamidation Halftimes of GlyXxxAsnYyyGly” value was 1.26 days. For “GlyPheAsnProGly (GFNPG; printed: GlyPheAsnProGly)”, the “First-Order Deamidation Halftimes of GlyXxxAsnYyyGly” value was 7990 days. In the case of “GlyArgAsnGlyGly (GRNGG; printed: GlyArgAsnGlyGly)”, the “First-Order Deamidation Halftimes of GlyXxxAsnYyyGly” value is reported as 1.00 days. With “GlyAspAsnLysGly (GDNKG; printed: GlyAspAsnLysGly)” the “First-Order Deamidation Halftimes of GlyXxxAsnYyyGly” value was 75.9 days. For “GlyValAsnThrGly (GVNTG; printed: GlyValAsnThrGly)”, the “First-Order Deamidation Halftimes of GlyXxxAsnYyyGly” value was 49.9 days. With “GlyIleAsnPheGly (GINFG; printed: GlyIleAsnPheGly)” the “First-Order Deamidation Halftimes of GlyXxxAsnYyyGly” value was 61.5 days. In the case of “GlyProAsnProGly (GPNPG; printed: GlyProAsnProGly)”, the “First-Order Deamidation Halftimes of GlyXxxAsnYyyGly” value is reported as 6590 days. In the case of “GlyProAsnAspGly (GPNDG; printed: GlyProAsnAspGly)”, the “First-Order Deamidation Halftimes of GlyXxxAsnYyyGly” value is reported as 48.6 days. In the case of GlyProAsnAmCysGly, the “First-Order Deamidation Halftimes of GlyXxxAsnYyyGly” value is reported as 43.7 days. In the case of “GlyGlyAsnAspGly (GGNDG; printed: GlyGlyAsnAspGly)”, the “First-Order Deamidation Halftimes of GlyXxxAsnYyyGly” value is reported as 28.0 days. With “GlyGlyAsnAlaGly (GGNAG; printed: GlyGlyAsnAlaGly)” the “First-Order Deamidation Halftimes of GlyXxxAsnYyyGly” value was 21.1 days. In the case of “GlyAspAsnGlyGly (GDNGG; printed: GlyAspAsnGlyGly)”, the “First-Order Deamidation Halftimes of GlyXxxAsnYyyGly” value is reported as 1.53 days. For “GlyLysAsnThrGly (GKNTG; printed: GlyLysAsnThrGly)”, the “First-Order Deamidation Halftimes of GlyXxxAsnYyyGly” value was 58.1 days. In the case of “GlyGluAsnIleGly (GENIG; printed: GlyGluAsnIleGly)”, the “First-Order Deamidation Halftimes of GlyXxxAsnYyyGly” value is reported as 279 days. In the case of “GlyMetAsnHisGly (GMNHG; printed: GlyMetAsnHisGly)”, the “First-Order Deamidation Halftimes of GlyXxxAsnYyyGly” value is reported as 10.2 days. In the case of “GlyLysAsnAlaGly (GKNAG; printed: GlyLysAsnAlaGly)”, the “First-Order Deamidation Halftimes of GlyXxxAsnYyyGly” value is reported as 23.6 days. For “GlyPheAsnGlyGly (GFNGG; printed: GlyPheAsnGlyGly)”, the “First-Order Deamidation Halftimes of GlyXxxAsnYyyGly” value was 1.15 days. With “GlyTrpAsnTrpGly (GWNWG; printed: GlyTrpAsnTrpGly)” the “First-Order Deamidation Halftimes of GlyXxxAsnYyyGly” value was 135 days. In the case of “GlyIleAsnAlaGly (GINAG; printed: GlyIleAsnAlaGly)”, the “First-Order Deamidation Halftimes of GlyXxxAsnYyyGly” value is reported as 25.9 days. For “GlyTrpAsnGluGly (GWNEG; printed: GlyTrpAsnGluGly)”, the “First-Order Deamidation Halftimes of GlyXxxAsnYyyGly” value was 75.7 days. In the case of “GlyTyrAsnGlyGly (GYNGG; printed: GlyTyrAsnGlyGly)”, the “First-Order Deamidation Halftimes of GlyXxxAsnYyyGly” value is reported as 1.49 days. With “GlyArgAsnValGly (GRNVG; printed: GlyArgAsnValGly)” the “First-Order Deamidation Halftimes of GlyXxxAsnYyyGly” value was 247 days. In the case of “GlyValAsnMetGly (GVNMG; printed: GlyValAsnMetGly)”, the “First-Order Deamidation Halftimes of GlyXxxAsnYyyGly” value is reported as 65.7 days. For “GlyProAsnAlaGly (GPNAG; printed: GlyProAsnAlaGly)”, the “First-Order Deamidation Halftimes of GlyXxxAsnYyyGly” value was 31.8 days. With “GlySerAsnArgGly (GSNRG; printed: GlySerAsnArgGly)” the “First-Order Deamidation Halftimes of GlyXxxAsnYyyGly” value was 59.7 days. For “GlyTrpAsnIleGly (GWNIG; printed: GlyTrpAsnIleGly)”, the “First-Order Deamidation Halftimes of GlyXxxAsnYyyGly” value was 286 days.

Same assay, conditions: pH 7.4, 37.0 ° C., 0.15 M Tris HCl; Gln pentapeptides; 52 values measured, rest derived from surface fitting
With “GlyAspGlnSerGly (GDQSG; printed: GlyAspGlnSerGly)” the “First-Order Deamidation Halftimes of GlyXxxGlnYyyGly” value was 6200 days. With “GlyMetGlnLeuGly (GMQLG; printed: GlyMetGlnLeuGly)” the “First-Order Deamidation Halftimes of GlyXxxGlnYyyGly” value was 5000 days. In the case of “GlyTyrGlnHisGly (GYQHG; printed: GlyTyrGlnHisGly)”, the “First-Order Deamidation Halftimes of GlyXxxGlnYyyGly” value is reported as 7400 days. In the case of “GlyThrGlnGluGly (GTQEG; printed: GlyThrGlnGluGly)”, the “First-Order Deamidation Halftimes of GlyXxxGlnYyyGly” value is reported as 5900 days. For “GlyLeuGlnIleGly (GLQIG; printed: GlyLeuGlnIleGly)”, the “First-Order Deamidation Halftimes of GlyXxxGlnYyyGly” value was 6500 days. With “GlyTyrGlnAlaGly (GYQAG; printed: GlyTyrGlnAlaGly)” the “First-Order Deamidation Halftimes of GlyXxxGlnYyyGly” value was 7300 days. In the case of “GlyIleGlnCysGly (GIQCG; printed: GlyIleGlnCysGly)”, the “First-Order Deamidation Halftimes of GlyXxxGlnYyyGly” value is reported as 2000 days. For “GlyAspGlnHisGly (GDQHG; printed: GlyAspGlnHisGly)”, the “First-Order Deamidation Halftimes of GlyXxxGlnYyyGly” value was 2500 days. In the case of “GlyPheGlnArgGly (GFQRG; printed: GlyPheGlnArgGly)”, the “First-Order Deamidation Halftimes of GlyXxxGlnYyyGly” value is reported as 7200 days. For “GlyValGlnAspGly (GVQDG; printed: GlyValGlnAspGly)”, the “First-Order Deamidation Halftimes of GlyXxxGlnYyyGly” value was 7000 days. For “GlySerGlnTrpGly (GSQWG; printed: GlySerGlnTrpGly)”, the “First-Order Deamidation Halftimes of GlyXxxGlnYyyGly” value was 17000 days. For “GlyGlyGlnPheGly (GGQFG; printed: GlyGlyGlnPheGly)”, the “First-Order Deamidation Halftimes of GlyXxxGlnYyyGly” value was 7600 days. In the case of “GlyPheGlnTyrGly (GFQYG; printed: GlyPheGlnTyrGly)”, the “First-Order Deamidation Halftimes of GlyXxxGlnYyyGly” value is reported as 12000 days. With “GlyLeuGlnHisGly (GLQHG; printed: GlyLeuGlnHisGly)” the “First-Order Deamidation Halftimes of GlyXxxGlnYyyGly” value was 6100 days. With “GlyCysGlnTrpGly (GCQWG; printed: GlyCysGlnTrpGly)” the “First-Order Deamidation Halftimes of GlyXxxGlnYyyGly” value was 9100 days. With “GlyGlyGlnHisGly (GGQHG; printed: GlyGlyGlnHisGly)” the “First-Order Deamidation Halftimes of GlyXxxGlnYyyGly” value was 5900 days. With “GlyCysGlnHisGly (GCQHG; printed: GlyCysGlnHisGly)” the “First-Order Deamidation Halftimes of GlyXxxGlnYyyGly” value was 4200 days. With “GlyValGlnCysGly (GVQCG; printed: GlyValGlnCysGly)” the “First-Order Deamidation Halftimes of GlyXxxGlnYyyGly” value was 1300 days. In the case of “GlyAlaGlnHisGly (GAQHG; printed: GlyAlaGlnHisGly)”, the “First-Order Deamidation Halftimes of GlyXxxGlnYyyGly” value is reported as 5500 days. For “GlyLysGlnTyrGly (GKQYG; printed: GlyLysGlnTyrGly)”, the “First-Order Deamidation Halftimes of GlyXxxGlnYyyGly” value was 8800 days. In the case of “GlyProGlnMetGly (GPQMG; printed: GlyProGlnMetGly)”, the “First-Order Deamidation Halftimes of GlyXxxGlnYyyGly” value is reported as 4500 days. For “GlyLeuGlnThrGly (GLQTG; printed: GlyLeuGlnThrGly)”, the “First-Order Deamidation Halftimes of GlyXxxGlnYyyGly” value was 5300 days. For “GlyLeuGlnArgGly (GLQRG; printed: GlyLeuGlnArgGly)”, the “First-Order Deamidation Halftimes of GlyXxxGlnYyyGly” value was 7200 days. With “GlyTrpGlnGluGly (GWQEG; printed: GlyTrpGlnGluGly)” the “First-Order Deamidation Halftimes of GlyXxxGlnYyyGly” value was 8500 days. For “GlyTrpGlnValGly (GWQVG; printed: GlyTrpGlnValGly)”, the “First-Order Deamidation Halftimes of GlyXxxGlnYyyGly” value was 8200 days. In the case of “GlyProGlnTrpGly (GPQWG; printed: GlyProGlnTrpGly)”, the “First-Order Deamidation Halftimes of GlyXxxGlnYyyGly” value is reported as 13000 days. For “GlyGluGlnIleGly (GEQIG; printed: GlyGluGlnIleGly)”, the “First-Order Deamidation Halftimes of GlyXxxGlnYyyGly” value was 4200 days. In the case of “GlyPheGlnMetGly (GFQMG; printed: GlyPheGlnMetGly)”, the “First-Order Deamidation Halftimes of GlyXxxGlnYyyGly” value is reported as 5100 days. With “GlyAlaGlnSerGly (GAQSG; printed: GlyAlaGlnSerGly)” the “First-Order Deamidation Halftimes of GlyXxxGlnYyyGly” value was 5200 days.
